Results reported in patent US20250057968A1, “ANTI-DLL3 ANTIBODY AND PHARMACEUTICAL USE THEREOF, AND ANTIBODY-DRUG CONJUGATE CONTAINING ANTI-DLL3 ANTIBODY” (Jiangsu Hengrui Pharmaceuticals Co., Ltd., priority 2021, published 2025).

Biological target: T1, Human DLL3 full-length protein on cells (human, UniProt Q9NYJ7 27-618)
T1 sequence: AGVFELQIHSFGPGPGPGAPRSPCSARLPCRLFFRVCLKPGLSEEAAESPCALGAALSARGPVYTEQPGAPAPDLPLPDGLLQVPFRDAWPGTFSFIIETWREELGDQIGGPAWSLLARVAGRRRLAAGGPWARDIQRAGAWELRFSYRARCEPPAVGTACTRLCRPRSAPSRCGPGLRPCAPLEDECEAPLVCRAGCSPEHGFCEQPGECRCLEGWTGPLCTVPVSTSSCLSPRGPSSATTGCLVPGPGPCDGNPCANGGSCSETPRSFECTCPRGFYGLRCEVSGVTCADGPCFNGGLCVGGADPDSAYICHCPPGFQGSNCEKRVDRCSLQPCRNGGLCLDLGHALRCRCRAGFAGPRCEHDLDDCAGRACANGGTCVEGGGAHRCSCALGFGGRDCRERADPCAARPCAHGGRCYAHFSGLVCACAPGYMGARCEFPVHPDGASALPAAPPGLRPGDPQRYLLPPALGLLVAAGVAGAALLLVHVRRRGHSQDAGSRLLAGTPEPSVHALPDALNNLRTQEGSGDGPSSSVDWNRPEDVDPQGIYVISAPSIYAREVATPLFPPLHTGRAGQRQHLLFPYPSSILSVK
Assay: cell-based or functional assay

B1: ADC-2 (antibody, human IgG1, kappa, V domains shown)
VH: EVQLVESGGGLVKPGGSLRLSCAASGFTFSDSGMHWIRQAPGKGLEWVSYISSGSSTIHYADTVKGRFTISRDNAKNSLYLQMNSLRAEDTAVYYCASPLYYYGRSYNAVAYWGQGTTVTVSS
VL: DIQMTQSPSSLSASVGDRVTITCHASQNINVWLSWYQQKPGKVPKLLIYKASDLHTGVPSRFSGSGSGTDFTLTISSLQPEDVATYYCQQGQSYPLTFGGGTKVEIKR
modifications: linker-drug L-9 conjugated after TCEP reduction; sites not stated; linker-drug L-9 (ecteinascidin derivative) conjugated after TCEP reduction; sites not stated; DAR n=3.72-4.88 for the whole antibody
- IC50 (nM), killing of DMS53 (+) cells: 13.1 nM
- IC50 (nM), killing of H1184 (+++) cells: 0.11 nM
